According to paper PMC7211993:

Tests used:
[1] = target: MDA-modified bovine serum albumin (bovine) (UniProt P02769); test: MST; microscale thermophoresis with both binding partners in fluid phase
[2] = target: MDA-modified bovine serum albumin (bovine) (UniProt P02769); test: ELISA; plasma added to coated MDA-BSA; bound CFH/FHL-1 detected with a monoclonal antibody that recognizes SCR5; read-out RLU/100 ms

Chain of complement factor H and its splice variant factor H-like protein 1 in plasma (study cohorts, all rs1061170 genotypes) (P08603 19-1231, change not shown): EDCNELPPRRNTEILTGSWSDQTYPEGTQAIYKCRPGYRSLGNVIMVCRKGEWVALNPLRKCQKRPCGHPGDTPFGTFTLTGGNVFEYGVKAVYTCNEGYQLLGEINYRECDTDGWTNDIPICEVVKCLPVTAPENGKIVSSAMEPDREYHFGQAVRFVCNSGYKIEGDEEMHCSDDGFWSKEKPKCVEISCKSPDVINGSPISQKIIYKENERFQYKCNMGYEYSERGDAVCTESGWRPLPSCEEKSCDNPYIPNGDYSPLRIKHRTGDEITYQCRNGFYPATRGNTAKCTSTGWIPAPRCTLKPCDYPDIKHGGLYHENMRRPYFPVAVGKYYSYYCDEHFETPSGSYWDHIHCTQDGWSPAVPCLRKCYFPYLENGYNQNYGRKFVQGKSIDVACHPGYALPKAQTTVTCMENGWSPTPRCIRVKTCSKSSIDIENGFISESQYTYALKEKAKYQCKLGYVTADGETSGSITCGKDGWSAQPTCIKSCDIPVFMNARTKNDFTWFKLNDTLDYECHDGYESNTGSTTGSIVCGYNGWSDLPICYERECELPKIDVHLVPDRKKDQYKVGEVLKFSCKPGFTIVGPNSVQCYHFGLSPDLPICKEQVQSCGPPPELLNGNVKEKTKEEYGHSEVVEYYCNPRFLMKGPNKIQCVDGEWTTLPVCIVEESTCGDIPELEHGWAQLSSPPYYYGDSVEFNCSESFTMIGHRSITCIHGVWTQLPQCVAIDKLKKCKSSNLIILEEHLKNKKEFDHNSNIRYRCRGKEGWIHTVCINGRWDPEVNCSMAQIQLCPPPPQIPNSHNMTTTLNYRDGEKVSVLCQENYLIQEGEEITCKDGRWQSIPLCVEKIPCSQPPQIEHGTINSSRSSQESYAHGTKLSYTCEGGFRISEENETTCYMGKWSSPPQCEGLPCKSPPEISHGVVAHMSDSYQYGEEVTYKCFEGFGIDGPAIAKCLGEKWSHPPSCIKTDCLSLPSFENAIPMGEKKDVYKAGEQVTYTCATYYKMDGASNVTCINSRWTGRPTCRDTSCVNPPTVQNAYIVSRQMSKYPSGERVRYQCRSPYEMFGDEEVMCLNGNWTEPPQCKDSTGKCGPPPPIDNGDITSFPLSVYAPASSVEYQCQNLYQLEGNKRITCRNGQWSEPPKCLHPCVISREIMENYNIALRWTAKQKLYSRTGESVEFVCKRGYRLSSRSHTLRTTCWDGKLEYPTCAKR
Chain of MDA-modified bovine serum albumin (bovine) (P02769 25-607): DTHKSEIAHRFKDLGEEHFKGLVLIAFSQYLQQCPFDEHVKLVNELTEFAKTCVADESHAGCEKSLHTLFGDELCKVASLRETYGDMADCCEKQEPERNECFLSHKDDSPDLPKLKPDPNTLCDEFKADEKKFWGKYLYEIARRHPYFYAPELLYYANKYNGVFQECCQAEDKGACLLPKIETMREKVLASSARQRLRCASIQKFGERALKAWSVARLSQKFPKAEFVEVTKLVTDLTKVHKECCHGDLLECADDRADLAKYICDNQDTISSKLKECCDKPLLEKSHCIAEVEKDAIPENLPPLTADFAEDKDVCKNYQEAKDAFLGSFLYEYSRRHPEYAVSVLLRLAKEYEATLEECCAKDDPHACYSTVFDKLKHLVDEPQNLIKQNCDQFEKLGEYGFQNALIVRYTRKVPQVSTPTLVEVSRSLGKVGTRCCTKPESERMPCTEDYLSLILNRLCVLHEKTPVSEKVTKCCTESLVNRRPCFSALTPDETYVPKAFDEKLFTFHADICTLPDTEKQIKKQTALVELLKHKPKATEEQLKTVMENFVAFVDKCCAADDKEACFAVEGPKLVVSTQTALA

Q: How did the Kd [1] turn out when “recombinant complement factor H-related protein 3 (from UniProt Q02985 19-330) (natural protein)” was run?
A: The Kd was 3.48 µM.

Q: For “complement factor H and its splice variant factor H-like protein 1 in plasma (study cohorts, all rs1061170 genotypes) (from UniProt P08603 19-1231) (natural protein)”, which binding to MDA-BSA, median of healthy individuals (n = 934) [2] is on record?
A: The binding to MDA-BSA, median of healthy individuals (n = 934) was 24200 RLU/100 ms.

Q: What about the binding to MDA-BSA, median of patients with major depression (n = 896) [2] of the same substance?
A: The binding to MDA-BSA, median of patients with major depression (n = 896) was 24800 RLU/100 ms.

Q: And the binding to MDA-BSA, median of the integrated cohort (n = 1,830) [2]?
A: The binding to MDA-BSA, median of the integrated cohort (n = 1,830) was 24600 RLU/100 ms.

Q: “recombinant complement factor H-related protein 1 (from UniProt Q03591 19-330) (natural protein)” was tested. Which Kd [1] did it give?
A: The Kd was 0.86 µM.
